Laboratory results taken from article PMC8239462, “Molecular chaperone RAP interacts with LRP1 in a dynamic bivalent mode and enhances folding of ligand-binding regions of other LDLR family receptors” (The Journal of Biological Chemistry, 2021).
Several values for one entry are separate records, joined by “and”; a condition that tells them apart may be missing. Identical values can stand only once.

B1: LRP1 CR.7 singlet (domain or fragment)
chain: not shown
notes: human LRP1 complement-type repeat 7 (cluster II); also called LRP1 CR.7 (RAP+); LRP1 CR.7 (RAP−); source: Sf9, baculovirus (pFastBac-Dual), expressed without RAP or coexpressed with RAP; purified (HisTrap Excel, Superdex 75, monomer peak)
B2: LRP1 CR.6–8 triplet expressed without RAP (RAP−) (domain or fragment)
chain: not shown
notes: human LRP1 complement-type repeats 6–8 (cluster II); also called LRP1 CR.6–8 (RAP−); source: Sf9, baculovirus (pFastBac-Dual), expressed without RAP; purified (HisTrap Excel, Superdex 75, monomer peak)
B3: LRP1 CR.6–7 doublet (coexpression study) (domain or fragment)
chain: not shown
notes: human LRP1 complement-type repeats 6–7 (cluster II); also called LRP1 CR; 6–7 (RAP+); LRP1 CR 6–7 (RAP−); source: Sf9, baculovirus (pFastBac-Dual), expressed without RAP or coexpressed with RAP; purified (HisTrap Excel, Superdex 75, monomer peak)
B4: LRP1 CR.6–8 triplet coexpressed with RAP (RAP+) (domain or fragment)
chain: not shown
notes: human LRP1 complement-type repeats 6–8 (cluster II); also called LRP1 CR; 6–8 (RAP+); source: Sf9, baculovirus (pFastBac-Dual), coexpressed with RAP; purified (HisTrap Excel, Superdex 75, monomer peak)
B5: RAP (commercial; R&D, 4296-LR) (natural protein, human)
chain: YSREKNQPKPSPKRESGEEFRMEKLNQLWEKAQRLHLPPVRLAELHADLKIQERDELAWKKLKLDGLDEDGEKEARLIRNLNVILAKYGLDGKKDARQVTSNSLSGTQEDGLDDPRLEKLWHKAKTSGKFSGEELDKLWREFLHHKEKVHEYNVLLETLSRTEEIHENVISPSDLSDIKGSVLHSRHTELKEKLRSINQGLDRLRRVSHQGYSTEAEFEEPRVIDLWDLAQSANLTDKELEAFREELKHFEAKIEKHNHYQKQLEIAHEKLRHAESVGDGERVSRSREKHALLEGRTKELGYTVKKHLQDLSGRISRARHNEL
notes: RAP (LDL-receptor related protein-associated protein), commercial preparation; also called receptor-associated protein; LDL-receptor related protein-associated protein; source: bought: R&D (4296-LR)
B6: LRP1 CR.7–8 doublet (coexpression study) (domain or fragment)
chain: not shown
notes: human LRP1 complement-type repeats 7–8 (cluster II); also called LRP1 CR.7–8 (RAP+); LRP1 CR.7–8 (RAP−); source: Sf9, baculovirus (pFastBac-Dual), expressed without RAP or coexpressed with RAP; purified (HisTrap Excel, Superdex 75, monomer peak)
B7: LRP1 cluster II (CR.3–10), recombinant, secreted from Sf9 cells (domain or fragment)
chain: PQCQPGEFACANSRCIQERWKCDGDNDCLDNSDEAPALCHQHTCPSDRFKCENNRCIPNRWLCDGDNDCGNSEDESNATCSARTCPPNQFSCASGRCIPISWTCDLDDDCGDRSDESASCAYPTCFPLTQFTCNNGRCININWRCDNDNDCGDNSDEAGCSHSCSSTQFKCNSGRCIPEHWTCDGDNDCGDYSDETHANCTNQATRPPGGCHTDEFQCRLDGLCIPLRWRCDGDTDCMDSSDEKSCEGVTHVCDPSVKFGCKDSARCISKAWVCDGDNDCEDNSDEENCESLACRPPSHPCANNTSVCLPPDKLCDGNDDCGDGSDEGELC
notes: also called LRP1 cluster II (8 CRs); cluster II (RAP−)
B8: recombinant human LRP-1 cluster II Fc chimera protein (R&D, 2368-L2) (Fc fusion, UniProt Q07954 852-1182, looked up)
chain: B7 chain
notes: human LRP1 cluster II of the bought Fc chimera; also called commercial LRP1 cluster II; source: bought: R&D (2368-L2)

Tests used:
Conditions in all cases: both partners purified
[1] = target: B5; assay: SPR; Biacore T200; receptor fragment expressed WITHOUT RAP (RAP−), monomer, amine-coupled to CM5 at ~250 RU; RAP (0.08–20 nM), FVIII (0.8–200 nM) or ApoE3 (0.78–200 nM) in flow, 30 ul/min, contact 180 s; HBS-P Ca2+ pH 7.4 (10 mM HEPES, 150 mM NaCl, 5 mM CaCl2, 0.005% Tween-20); KD from the steady-state affinity model
[2] = target: B5; assay: SPR; Biacore T200; receptor fragment COEXPRESSED with RAP (RAP+; for the LRP1 clusters RAP without HTEL; RAP washed off during purification), monomer, amine-coupled to CM5 at ~250 RU; RAP (0.08–20 nM), FVIII (0.8–200 nM) or ApoE3 (0.78–200 nM) in flow, 30 ul/min, contact 180 s; HBS-P Ca2+ pH 7.4; KD from the steady-state affinity model
[3] = target: T1, LRP1 cluster III, recombinant, secreted from Sf9 cells (human, UniProt Q07954 2522-2940); assay: as above
T1 construct: also called cluster III (RAP+); cluster III (RAP−)

[4] = target: T2, recombinant Factor VIII (Advate) (UniProt P00451 20-2351); assay: SPR; Biacore T200; receptor fragment expressed WITHOUT RAP (RAP−), monomer, amine-coupled to CM5 at ~250 RU; RAP (0.08–20 nM), FVIII (0.8–200 nM) or ApoE3 (0.78–200 nM) in flow, 30 ul/min, contact 180 s; HBS-P Ca2+ pH 7.4 (10 mM HEPES, 150 mM NaCl, 5 mM CaCl2, 0.005% Tween-20); KD from the steady-state affinity model
T2 construct: blood coagulation factor VIII, recombinant drug product Advate; also called FVIII; blood coagulation factor VIII; source: bought: Advate

[5] = target: T2, recombinant Factor VIII (Advate); assay: SPR; Biacore T200; receptor fragment COEXPRESSED with RAP (RAP+; for the LRP1 clusters RAP without HTEL; RAP washed off during purification), monomer, amine-coupled to CM5 at ~250 RU; RAP (0.08–20 nM), FVIII (0.8–200 nM) or ApoE3 (0.78–200 nM) in flow, 30 ul/min, contact 180 s; HBS-P Ca2+ pH 7.4; KD from the steady-state affinity model
[6] = target: T2, recombinant Factor VIII (Advate); assay: SPR; Biacore T200; LRP1 cluster II coexpressed with RAP having the HTEL signal (RAP-HTEL+), monomer, amine-coupled to CM5 at ~250 RU; RAP (0.08–20 nM) or FVIII (0.8–200 nM) in flow; HBS-P Ca2+ pH 7.4; KD from the steady-state affinity model
[7] = target: T2, recombinant Factor VIII (Advate); assay: SPR; Biacore T200; commercial LRP1 cluster Fc chimeras (R&D) amine-coupled to CM5 at ~250 RU; RAP (0.08–20 nM) or FVIII (0.8–200 nM) in flow; HBS-P Ca2+ pH 7.4; KD from the steady-state affinity model

T2 sequence (P00451 20-2351): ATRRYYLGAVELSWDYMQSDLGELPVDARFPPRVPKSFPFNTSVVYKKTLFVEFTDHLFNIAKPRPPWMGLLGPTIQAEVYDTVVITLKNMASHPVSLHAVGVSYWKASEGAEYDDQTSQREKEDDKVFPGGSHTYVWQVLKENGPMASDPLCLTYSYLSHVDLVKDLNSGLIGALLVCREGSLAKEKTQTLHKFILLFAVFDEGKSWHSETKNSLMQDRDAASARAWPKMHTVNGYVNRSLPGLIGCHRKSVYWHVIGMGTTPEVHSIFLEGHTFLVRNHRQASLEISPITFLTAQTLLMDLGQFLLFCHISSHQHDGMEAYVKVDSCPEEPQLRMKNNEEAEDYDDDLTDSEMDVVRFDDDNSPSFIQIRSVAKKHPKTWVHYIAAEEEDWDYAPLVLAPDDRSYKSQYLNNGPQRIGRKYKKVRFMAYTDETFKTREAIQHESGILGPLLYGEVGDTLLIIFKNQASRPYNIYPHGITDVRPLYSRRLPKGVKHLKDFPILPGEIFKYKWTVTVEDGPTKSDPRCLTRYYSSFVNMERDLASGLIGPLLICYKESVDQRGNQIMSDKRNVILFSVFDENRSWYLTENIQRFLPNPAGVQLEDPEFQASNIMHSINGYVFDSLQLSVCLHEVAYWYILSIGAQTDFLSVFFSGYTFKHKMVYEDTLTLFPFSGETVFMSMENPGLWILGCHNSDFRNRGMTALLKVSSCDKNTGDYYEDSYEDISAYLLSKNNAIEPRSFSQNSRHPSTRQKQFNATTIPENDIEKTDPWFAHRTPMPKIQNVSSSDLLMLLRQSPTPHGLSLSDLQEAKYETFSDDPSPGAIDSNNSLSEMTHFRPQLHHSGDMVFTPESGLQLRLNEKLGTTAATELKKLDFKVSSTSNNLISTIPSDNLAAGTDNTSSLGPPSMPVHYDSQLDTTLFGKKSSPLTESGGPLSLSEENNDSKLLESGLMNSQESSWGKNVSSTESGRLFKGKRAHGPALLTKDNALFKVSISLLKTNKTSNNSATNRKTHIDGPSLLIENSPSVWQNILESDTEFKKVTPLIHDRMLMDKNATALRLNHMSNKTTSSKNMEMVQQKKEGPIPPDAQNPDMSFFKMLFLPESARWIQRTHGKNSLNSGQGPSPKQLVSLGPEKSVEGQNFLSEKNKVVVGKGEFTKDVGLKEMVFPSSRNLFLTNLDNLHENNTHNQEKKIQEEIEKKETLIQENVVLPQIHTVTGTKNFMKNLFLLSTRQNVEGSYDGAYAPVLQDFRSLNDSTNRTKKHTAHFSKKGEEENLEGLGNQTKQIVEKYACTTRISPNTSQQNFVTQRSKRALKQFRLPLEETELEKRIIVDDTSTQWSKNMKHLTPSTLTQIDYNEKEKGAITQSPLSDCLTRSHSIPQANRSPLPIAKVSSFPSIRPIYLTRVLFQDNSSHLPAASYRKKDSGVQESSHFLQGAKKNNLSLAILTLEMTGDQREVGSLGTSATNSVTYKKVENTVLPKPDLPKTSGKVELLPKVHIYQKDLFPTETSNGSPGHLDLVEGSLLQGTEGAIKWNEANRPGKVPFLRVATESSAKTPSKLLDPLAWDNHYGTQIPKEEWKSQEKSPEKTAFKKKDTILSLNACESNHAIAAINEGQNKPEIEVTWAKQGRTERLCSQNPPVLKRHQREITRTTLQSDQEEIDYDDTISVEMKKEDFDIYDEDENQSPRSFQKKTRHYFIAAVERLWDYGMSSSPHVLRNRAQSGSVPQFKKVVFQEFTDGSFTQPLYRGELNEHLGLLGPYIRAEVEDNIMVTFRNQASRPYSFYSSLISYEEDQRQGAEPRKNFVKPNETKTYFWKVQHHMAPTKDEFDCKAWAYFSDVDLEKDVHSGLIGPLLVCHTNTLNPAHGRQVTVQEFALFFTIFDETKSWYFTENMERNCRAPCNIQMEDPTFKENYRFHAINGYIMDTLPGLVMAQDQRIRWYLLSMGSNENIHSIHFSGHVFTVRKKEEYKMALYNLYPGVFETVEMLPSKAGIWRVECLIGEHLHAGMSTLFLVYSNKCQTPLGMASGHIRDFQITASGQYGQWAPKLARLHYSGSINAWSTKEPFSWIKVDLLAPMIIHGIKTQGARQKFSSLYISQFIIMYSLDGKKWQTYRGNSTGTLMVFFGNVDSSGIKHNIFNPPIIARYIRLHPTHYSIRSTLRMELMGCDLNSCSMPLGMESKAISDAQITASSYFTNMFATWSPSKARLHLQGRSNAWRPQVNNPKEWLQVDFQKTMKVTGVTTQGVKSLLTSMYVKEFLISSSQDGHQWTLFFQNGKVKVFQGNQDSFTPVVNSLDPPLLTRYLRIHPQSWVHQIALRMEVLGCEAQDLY
T1 sequence (Q07954 2522-2940): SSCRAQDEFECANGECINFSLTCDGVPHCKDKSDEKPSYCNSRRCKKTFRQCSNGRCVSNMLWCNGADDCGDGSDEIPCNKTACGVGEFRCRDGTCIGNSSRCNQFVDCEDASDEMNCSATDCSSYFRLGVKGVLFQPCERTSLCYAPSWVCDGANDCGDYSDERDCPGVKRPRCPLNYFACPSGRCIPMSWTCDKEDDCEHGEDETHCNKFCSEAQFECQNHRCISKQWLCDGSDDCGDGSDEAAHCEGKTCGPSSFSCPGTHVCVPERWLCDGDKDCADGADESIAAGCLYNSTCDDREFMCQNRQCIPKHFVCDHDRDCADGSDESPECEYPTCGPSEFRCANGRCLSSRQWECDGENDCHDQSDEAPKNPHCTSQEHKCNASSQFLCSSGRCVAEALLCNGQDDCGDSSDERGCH

With B1 the Kd [1] was 43.7 nM and the Kd [2] was 34.9 nM.

With B2 the Kd [1] was 2.9 nM.

B3 gave a Kd [1] of 3.9 nM and a Kd [2] of 3.8 nM.

B4 showed a Kd [2] of 2.8 nM.

For B5, the Kd [3] was 2 nM.

Work on B6 yielded a Kd [2] of 3.1 nM.

In the case of B7, the Kd [4] is reported as 244 nM and 192 nM, the Kd [5] is reported as 25 nM and 42 nM and the Kd [6] is reported as 37 nM.

For B8, the Kd [7] was 450 nM.
